Measurements from the supplement of paper PMC10567573.

Assay: protein stability index of a GFP-peptide fusion (GPS, HEK-293T) (PSI 1-6); higher = more stable
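Also: lentivirally expressed fusions sorted by FACS into six bins by GFP to DsRed ratio, PSI derived from sequencing read proportions per bin multiplied by bin number.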

YSAYIRRCACAASSDESPGSKCSP [TTC32 WT]
protein stability index (parent: IOH43157_6, c terminus: a fixed tail appended): 1.99

EEITEESLEESVGKPLYLIFRNLC
protein stability index (parent: IOH41890_107, c terminus: a fixed tail appended): 2.68

TLSEAYIQIWKRRDNDETNQQGA
protein stability index (parent: IOH45672_93, c terminus: native): 2.22

VTIKHVACGDFFTACLTDRGIIMT
protein stability index (parent: IOH45357_66, c terminus: a fixed tail appended): 2.6

PRYREDPCKQCKKKYVKGDVSLCR [FBXO34 WT]
protein stability index (parent: IOH41760_105, c terminus: a fixed tail appended): 2.57

DYFPSEDFYRCGYCKNESGSRSNG
protein stability index (parent: IOH45551_3, c terminus: a fixed tail appended): 2.1

FQFASIDVAGNLDYKALSYVITHG
protein stability index (parent: IOH44370_25, c terminus: a fixed tail appended): 2.42

FHPIKETVVEEPVDITPYLDQLDE
protein stability index (parent: IOH41890_93, c terminus: a fixed tail appended): 3.32

EEAEELAKEMSVPFYTSRIDEVLL
protein stability index (parent: IOH42390_7, c terminus: a fixed tail appended): 3.76

AFTMAENLANCERLIEVEDMMVMG
protein stability index (parent: IOH43320_46, c terminus: a fixed tail appended): 2.04

DLNSKGKKREFRFHPIKETVVEEP
protein stability index (parent: IOH41890_91, c terminus: a fixed tail appended): 2.23

KLLVVDRTRRLGNMKNGANDVKHH [PRKX WT]
protein stability index (parent: IOH45425_47, c terminus: a fixed tail appended): 3.15

DVPDLQSVCSCTCYRSQDYGGRSV
protein stability index (parent: IOH45737_49, c terminus: a fixed tail appended): 1.8

QVPVVDFQAELRQAFLAETPRGG [SNURF WT]
protein stability index (parent: IOH45840_9, c terminus: native): 2.99

DVAGNLDYKALSYVITHGEEKEE
protein stability index (parent: IOH44370_26, c terminus: native): 2.21

CFITLTTIGFGDYVALQTKGALQK
protein stability index (parent: IOH45737_33, c terminus: a fixed tail appended): 2.94

YQDMIYAVGGRDDTTELSSAERYN [KLHL20 WT]
protein stability index (parent: IOH45628_85, c terminus: a fixed tail appended): 2.4

YTGRAPNLDKMADNLLAAADKYAL
protein stability index (parent: IOH45687_44, c terminus: a fixed tail appended): 2.12

FVEKNPTIVNFPITNVDLREYLSE
protein stability index (parent: IOH45672_78, c terminus: a fixed tail appended): 1.94

VVGTPCYISPELCEGKPYNQKSDI
protein stability index (parent: IOH45357_28, c terminus: a fixed tail appended): 2.69

DRKLHSRPRKLYKHSSTSSRIAKG
protein stability index (parent: IOH43395_4, c terminus: a fixed tail appended): 3.86

CKDFLCQFCAQRFGRKDHLTRHTK
protein stability index (parent: IOH42591_31, c terminus: a fixed tail appended): 2.02

YTFGSNQHGQLGTNTRRGSRAPCK
protein stability index (parent: IOH45357_98, c terminus: a fixed tail appended): 3.79

PDDKLTLFCEVSVVQDSVNISGHT
protein stability index (parent: IOH45687_26, c terminus: a fixed tail appended): 2.06

QKNFELAFTMAENLANCERLIEVE
protein stability index (parent: IOH43320_45, c terminus: a fixed tail appended): 1.84

SDDFCTFQMVLEGGVCCTVTLNFN
protein stability index (parent: IOH42390_37, c terminus: a fixed tail appended): 3.15

YPSYKVREKIETVKYPTYPEAEK
protein stability index (parent: IOH44218_94, c terminus: native): 4.2

NWRYATGGWETVFRPVSETCTDRS
protein stability index (parent: IOH44218_42, c terminus: a fixed tail appended): 1.78

LCKDCQVIDGRNVTVTDVDIVFSK [TPPP WT]
protein stability index (parent: IOH43477_14, c terminus: a fixed tail appended): 2.25

FQGSMRIFTKKLPHPDLPAEEKEQ
protein stability index (parent: IOH45672_59, c terminus: a fixed tail appended): 2.02

YQQIKAGAYDFPSPEWDTVTPEAK [CAMK2B WT]
protein stability index (parent: IOH45432_38, c terminus: a fixed tail appended): 3.58

YPCLEKPRIWSLAHTATASAVEGA [IRX6 WT]
protein stability index (parent: IOH43040_58, c terminus: a fixed tail appended): 2.44

FLGHHSFSVRPGTEATISIREDEV
protein stability index (parent: IOH42569_57, c terminus: a fixed tail appended): 1.72

LELGSTEVLLDHLKAHAEEKPPSG
protein stability index (parent: IOH42591_22, c terminus: a fixed tail appended): 4.44

DPNKMAFGCEECGKKYNTMLGYKR
protein stability index (parent: IOH42591_15, c terminus: a fixed tail appended): 2.34

YAHQPRTADEIPMEPGDIIGVAGN
protein stability index (parent: IOH44218_86, c terminus: a fixed tail appended): 4.04

RAGHHPNQYATCRLCGRQVSRGPG
protein stability index (parent: IOH45853_12, c terminus: a fixed tail appended): 2.02

YGSFHQQYWLDGKIIAVGVIDILP
protein stability index (parent: IOH45551_57, c terminus: a fixed tail appended): 2.33

FYRLYQDLETHRLPCTSRCPRPCR
protein stability index (parent: IOH42569_73, c terminus: a fixed tail appended): 2.21

RRPSPVLRHLELLDEFARENIDSL
protein stability index (parent: IOH42569_24, c terminus: a fixed tail appended): 2.6

FSDDEEDLNSKGKKREFRFHPIKE
protein stability index (parent: IOH41890_90, c terminus: a fixed tail appended): 2.85

FVYENAKEGARNIRTSERVTLIVD
protein stability index (parent: IOH43395_26, c terminus: a fixed tail appended): 1.94

YPPLEGHVRQGVFSSLNHIVEKRV
protein stability index (parent: IOH41890_75, c terminus: a fixed tail appended): 2.53

TKEKKHQCDHCERCFYTRKDVRRH
protein stability index (parent: IOH42591_26, c terminus: a fixed tail appended): 3.45

ETAAGKGKGEARARLKRSQSFGVA
protein stability index (parent: IOH43320_31, c terminus: a fixed tail appended): 4.31

NWLGRPSKVLSLQDLCCRTIVSCT [RAB40A WT]
protein stability index (parent: IOH45721_31, c terminus: a fixed tail appended): 2.45

KKREFRFHPIKETVVEEPVDITPY
protein stability index (parent: IOH41890_92, c terminus: a fixed tail appended): 1.94

FHLAPARAGHHPNQYATCRLCGRQ
protein stability index (parent: IOH45853_11, c terminus: a fixed tail appended): 1.84

AQLQALRQKEVDFCISLLRERFME
protein stability index (parent: IOH41890_38, c terminus: a fixed tail appended): 2.31

IRVMVHGRNHTPFLGHHSFSVRPG
protein stability index (parent: IOH42569_55, c terminus: a fixed tail appended): 2.25

FTSGFNAAALDYEADGSTNNGIFQ [SPACA3 WT]
protein stability index (parent: IOH42995_21, c terminus: a fixed tail appended): 1.89

AKREETKAMESQRAYRFVQGKDWG
protein stability index (parent: IOH45687_19, c terminus: a fixed tail appended): 2.71

EKPPSGTKEKKHQCDHCERCFYTR
protein stability index (parent: IOH42591_25, c terminus: a fixed tail appended): 3.58
